Legend:
[1] = biological target: T1, human RYK on the surface of human tumor cell lines (human, UniProt P34925 46-607); assay: flow cytometry, HT144 cells (skin), 5 ug/ml 2-D11-Alexa647
T1 construct: whole, on cells; Endogenous expression
Description: (§1) Table 1 provides the flow cytometry data on various cancer cell lines stained with fluorochrome-conjugated 2-D11, as depicted in FIG. 8. The name of each cell line is listed in the first column and the tissue of origin is listed in the second column. Binding of the 2-D11 mAb to human RYK was assessed by flow cytometric staining and analysis by staining on ice for 20 minutes with 5 μg/ml of 2-D11 anti-human RYK-Alexa647 conjugated mAb or equal amounts of isotype matched control mAb, washed, and analyzed. The median fluorescence intensity (MFI) of 2-D11 stained cells is listed in the middle column and the MFI of isotype control stained cells are listed in the in the adjacent column. Cell lines were scored as “++”, “+”, or neg (unmarked with “+”) lines based on the ratio of median fluorescence intensity (MFI) of stained cells relative to the MFI of isotype control stained cells (MFIR).
(§2) The name of each cell line is listed in the first column and the tissue of origin is listed in the second column. Binding of the 2-D11 mAb to human RYK was assessed by flow cytometric staining and analysis by staining on ice for 20 minutes with 5 μg/ml of 2-D11 anti-human RYK-Alexa647 conjugated mAb or equal amounts of isotype matched control mAb, washed and analyzed. […]

[2] = biological target: T1, human RYK on the surface of human tumor …; assay: flow cytometry, HT29 cells (colon), 5 ug/ml 2-D11-Alexa647
Description: as §1, §2

[3] = biological target: T1, human RYK on the surface of human tumor …; assay: flow cytometry, HS683 cells (brain), 5 ug/ml 2-D11-Alexa647
Description: as §1, §2

[4] = biological target: T2, recombinant human RYK protein used in KinExA (human, UniProt P34925 46-227, limits assumed); assay: KinExA 3200, soluble RYK competitor against RYK-coated particles
T2 construct: Legend prints 'RYK2'; also called recombinant human RYK2 protein
Description: Analysis was performed using a KinExA 3200 instrument. FIG. 7A: The proportion of anti-human RYK mAb bound to particles coated with RYK protein (y-axis) in the presence of increasing molar (M) concentration of soluble RYK competitor (x-axis) is shown for 2-D11 mAb (upper left panel) and 7-H10 mAb (lower left panel).

[5] = biological target: T1, human RYK on the surface of human tumor …; assay: flow cytometry, HS-578T cells (breast), 5 ug/ml 2-D11-Alexa647
Description: as §1, §2

[6] = biological target: T1, human RYK on the surface of human tumor …; assay: flow cytometry, H292 cells (lung), 5 ug/ml 2-D11-Alexa647; line unmarked (no staining)
Description: as §1, §2

[7] = biological target: T1, human RYK on the surface of human tumor …; assay: flow cytometry, MCF7 cells (breast), 5 ug/ml 2-D11-Alexa647; line unmarked (no staining)
Description: as §1, §2

[8] = biological target: T1, human RYK on the surface of human tumor …; assay: flow cytometry, DU-145 cells (prostate), 5 ug/ml 2-D11-Alexa647; line unmarked (no staining)
Description: as §1, §2

[9] = biological target: T1, human RYK on the surface of human tumor …; assay: flow cytometry, CAPAN-2 cells (pancreas), 5 ug/ml 2-D11-Alexa647; line unmarked (no staining)
Description: as §1, §2

[10] = biological target: T1, human RYK on the surface of human tumor …; assay: flow cytometry, MDA-MB-231 cells (breast), 5 ug/ml 2-D11-Alexa647; line unmarked (no staining)
Description: as §1, §2

[11] = biological target: T1, human RYK on the surface of human tumor …; assay: flow cytometry, U937 cells (monocyte cancer), 5 ug/ml 2-D11-Alexa647; line unmarked (no staining)
Description: as §1, §2

[12] = biological target: T1, human RYK on the surface of human tumor …; assay: flow cytometry, HELA cells (ovarian as printed), 5 ug/ml 2-D11-Alexa647; line unmarked (no staining)
Description: as §1, §2

T1 sequence (P34925 46-607 limits assumed, form in doubt): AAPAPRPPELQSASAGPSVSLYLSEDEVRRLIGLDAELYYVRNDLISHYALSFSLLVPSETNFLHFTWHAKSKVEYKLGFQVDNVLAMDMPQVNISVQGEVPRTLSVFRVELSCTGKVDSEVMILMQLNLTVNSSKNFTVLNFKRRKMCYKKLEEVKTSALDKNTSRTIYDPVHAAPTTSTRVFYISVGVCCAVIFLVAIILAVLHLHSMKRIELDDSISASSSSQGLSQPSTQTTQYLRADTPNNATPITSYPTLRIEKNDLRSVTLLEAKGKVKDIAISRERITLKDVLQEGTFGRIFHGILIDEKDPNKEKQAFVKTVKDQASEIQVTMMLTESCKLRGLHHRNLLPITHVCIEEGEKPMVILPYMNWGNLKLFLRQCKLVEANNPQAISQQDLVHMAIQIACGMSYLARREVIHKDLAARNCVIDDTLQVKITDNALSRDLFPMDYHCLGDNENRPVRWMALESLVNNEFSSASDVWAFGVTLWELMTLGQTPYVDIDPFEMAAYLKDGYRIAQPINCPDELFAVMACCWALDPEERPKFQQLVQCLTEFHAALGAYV
T2 sequence (P34925 46-227 limits assumed, form in doubt): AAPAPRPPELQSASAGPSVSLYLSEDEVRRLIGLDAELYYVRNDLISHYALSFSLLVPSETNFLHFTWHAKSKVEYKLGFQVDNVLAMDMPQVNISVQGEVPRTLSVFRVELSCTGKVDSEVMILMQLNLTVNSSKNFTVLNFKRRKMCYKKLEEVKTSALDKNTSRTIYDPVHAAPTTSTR

B1: 2-D11 anti-human RYK mAb (antibody, V domains shown)
VH: QVQLKESGPGLVAPSQSLSITCSVSGFSLNDYGVNWVRQPPGKDLEWLGMIWGDGVTEYNSTLKSRLSISKDNSKSQVFLKMNNLQTEDTARYYCVRQGSGVWFAHWGQGTLVSVSS
VL: DVLVTQTPLSLPVSLGDQASISCRSSQTIVHSNGNTYLEWYLQKPGQSPKLLIYKVSNRFSGVPDRFSGSGSGTDFTLKISRVEAEDLGIYYCFQGSHVPYTFGGGTKLEIK
notes: Mouse hybridoma mAb, kappa light chain, detected with anti-mouse IgG; also called mAb 2-D11; 2-D11 anti-human RYK-Alexa647 conjugated mAb
B1 was tested, and the “MFIR (MFI ratio to isotype control)” value [1] was 1.6, the “MFIR (MFI ratio to isotype control)” value [2] was 2.2 and the “MFIR (MFI ratio to isotype control)” value [3] was 2.5. For the same binder, the Kd [4] was 0.513 nM, the “MFIR (MFI ratio to isotype control)” value [5] was 2.7 and the “MFIR (MFI ratio to isotype control)” value [6] was 1.3. The “MFIR (MFI ratio to isotype control)” value [7] was 1.4, the “MFIR (MFI ratio to isotype control)” value [8] was 1.3 and the “MFIR (MFI ratio to isotype control)” value [9] was 1.3. The “MFIR (MFI ratio to isotype control)” value [10] was 1.1, the “MFIR (MFI ratio to isotype control)” value [11] was 1.2 and the “MFIR (MFI ratio to isotype control)” value [12] was 1.1.
